# T1: ICBP-59 (Homo sapiens, UniProt Q96T88 SEQ:263-793)
# T1 chain: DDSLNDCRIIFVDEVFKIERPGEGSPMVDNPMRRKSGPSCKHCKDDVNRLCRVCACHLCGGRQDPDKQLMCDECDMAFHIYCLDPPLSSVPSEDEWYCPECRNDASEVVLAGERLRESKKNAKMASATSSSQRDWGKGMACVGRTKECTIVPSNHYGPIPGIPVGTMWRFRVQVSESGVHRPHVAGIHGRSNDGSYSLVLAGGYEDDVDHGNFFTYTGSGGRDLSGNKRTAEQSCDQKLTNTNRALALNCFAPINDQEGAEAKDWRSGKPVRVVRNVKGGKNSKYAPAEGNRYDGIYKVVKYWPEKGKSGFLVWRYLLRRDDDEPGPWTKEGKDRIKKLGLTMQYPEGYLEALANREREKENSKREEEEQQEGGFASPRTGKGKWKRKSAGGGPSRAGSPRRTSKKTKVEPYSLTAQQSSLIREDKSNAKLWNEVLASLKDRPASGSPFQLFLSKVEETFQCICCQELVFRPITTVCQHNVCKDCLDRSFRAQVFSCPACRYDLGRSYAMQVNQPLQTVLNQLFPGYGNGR
# B1: ICB2X3 (dsDNA)
# DNA 1: AATTCGATTGGTTCTGATTGGTTCTGATTGGTTCTT
# DNA 2: CTAGAAGAACCAATCAGAACCAATCAGAACCAATCG
# Target: T1, ICBP-59
# Test: EMSA; 12 mM HEPES-NaOH pH 7.9, 60 mM KCl, 4 mM Tris-HCl, 12% glycerol, poly(dI/dC), room temperature
# Conditions: tags: GST fusion (pGEX-4T-1), GST cleaved with thrombin; label: 32P; cohesive EcoRI/XbaI ends
# Procedure: The ICBP-59 protein (1 μg) was incubated with 1 ng of oligonucleotide and labelled at its terminal end by phosphorous ³²P in 12% glycerol, 12 mM HEPES-NaOH (pH 7.9), 60 mM KCl, 4 mM Tris-HCl (pH 7.9), 100 ng BSA, 0.6 mM DTT, and 100 ng poly(dI/dC) in 20 μl (Inouye et al., 1994). After a 30-minutes incubation at room temperature, the reaction mix was loaded in 6% polyacrylamide gels. In competition experiments, the quantity indicated of non-labelled oligonucleotides were added to the reaction mix 10 minutes before the addition of proteins. To examine the binding properties of ICBP90 with regard to the ICB2 box, we used the same protocol except that labelled oligonucleotide contained only one copy of the CCAAT sequence as described below: […]
binder,measurement,value
B1,binding result,binds

# From patent publication US20060281125, “ICBP90 polypeptide and its fragments and polynucleotides coding for said polypeptides and applications for diagnosing and treating cancer” (Institut National de la Sante et de la Recherche Medicale, published 2006)
